biological target: arfg1_rat Arfgap1 (UniProt Q62848)
Sequence (Q62848 whole entry): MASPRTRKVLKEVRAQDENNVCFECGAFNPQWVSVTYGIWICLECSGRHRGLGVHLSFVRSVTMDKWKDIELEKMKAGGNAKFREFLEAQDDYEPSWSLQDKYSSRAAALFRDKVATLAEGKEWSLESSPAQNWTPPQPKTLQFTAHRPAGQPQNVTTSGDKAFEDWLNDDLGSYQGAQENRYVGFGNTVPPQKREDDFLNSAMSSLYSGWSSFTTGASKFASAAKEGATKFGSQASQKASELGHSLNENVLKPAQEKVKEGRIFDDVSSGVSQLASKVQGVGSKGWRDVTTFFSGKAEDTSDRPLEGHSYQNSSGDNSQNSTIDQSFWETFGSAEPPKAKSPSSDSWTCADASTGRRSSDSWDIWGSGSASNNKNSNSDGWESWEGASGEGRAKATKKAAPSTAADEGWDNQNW

| Substance | effect of a mutation on the interaction |
| --- | --- |
| Leucine-rich repeat serine/threonine-protein kinase 2 (Homo sapiens), Q5S007 G2019S | increasing interaction |
| Leucine-rich repeat serine/threonine-protein kinase 2 (Homo sapiens), Q5S007 R1398L | decreasing interaction |
| Leucine-rich repeat serine/threonine-protein kinase 2 (Homo sapiens), Q5S007 R1441C | increasing interaction |
| Leucine-rich repeat serine/threonine-protein kinase 2 (Homo sapiens), Q5S007 T1348N | decreasing interaction |
| Leucine-rich repeat serine/threonine-protein kinase 2 (Homo sapiens), Q5S007 Y1699C | increasing interaction |
